Positions of bridges follow the written chain, without caps; N, C: chain ends.
B1: HingeW (HW1) (peptide)
peptide: MASLEQRAEELARENEELEKEAEELVVEEDVLEEEIEQLEERNYALRKEIEDLQKQLEKLGAP
notes: TBS-selected 63-mer (acidic extension plus leucine zipper) with MAS N-cap and GAP C-cap; not shown: 6xHis, C-terminal, kept
B2: HW4 (peptide)
peptide: Ac-EAEELVVEEDVLEEEIEQLEERNYALRKEIEDLQKQLEKL-NH2
notes: truncation NΔ20 CΔ3 of HW1; source: synthetic peptide (Fmoc SPPS, RP-HPLC purified)
B3: HW8 (peptide)
peptide: Ac-EAEELVVEEDVLEEEIEQLEERNYALRKEIEDLQKQ-NH2
notes: truncation NΔ20 CΔ7 of HW1; source: synthetic peptide (Fmoc SPPS, RP-HPLC purified)
B4: HW23 (peptide)
peptide: Ac-EAEELVVEEKVLEDEIEQLEERNYALRKEIEDLQKQ-NH2
modifications: lactam 10-14
SMILES: CC[C@H](C)[C@H](NC(=O)[C@H](CCC(=O)O)NC(=O)[C@H](CCCCN)NC(=O)[C@H](CCCNC(=N)N)NC(=O)[C@H](CC(C)C)NC(=O)[C@H](C)NC(=O)[C@H](Cc1ccc(O)cc1)NC(=O)[C@H](CC(N)=O)NC(=O)[C@H](CCCNC(=N)N)NC(=O)[C@H](CCC(=O)O)NC(=O)[C@H](CCC(=O)O)NC(=O)[C@H](CC(C)C)NC(=O)[C@H](CCC(N)=O)NC(=O)[C@H](CCC(=O)O)NC(=O)[C@@H](NC(=O)[C@H](CCC(=O)O)NC(=O)[C@@H]1CC(=O)NCCCC[C@H](NC(=O)[C@H](CCC(=O)O)NC(=O)[C@H](CCC(=O)O)NC(=O)[C@@H](NC(=O)[C@@H](NC(=O)[C@H](CC(C)C)NC(=O)[C@H](CCC(=O)O)NC(=O)[C@H](CCC(=O)O)NC(=O)[C@H](C)NC(=O)[C@H](CCC(=O)O)NC(C)=O)C(C)C)C(C)C)C(=O)N[C@@H](C(C)C)C(=O)N[C@@H](CC(C)C)C(=O)N[C@@H](CCC(=O)O)C(=O)N1)[C@@H](C)CC)C(=O)N[C@@H](CCC(=O)O)C(=O)N[C@@H](CC(=O)O)C(=O)N[C@@H](CC(C)C)C(=O)N[C@@H](CCC(N)=O)C(=O)N[C@@H](CCCCN)C(=O)N[C@@H](CCC(N)=O)C(N)=O
notes: cyclized form of the pair HW22/HW23; NΔ20 CΔ7; source: synthetic peptide (Fmoc SPPS, on-resin lactamization, RP-HPLC purified)
B5: HW29 (peptide)
peptide: Ac-EAEELVVEEDVLEEEIEQLEERNYALRKEIKDLQDQ-NH2
modifications: lactam 31-35
SMILES: CC[C@H](C)[C@H](NC(=O)[C@H](CCC(=O)O)NC(=O)[C@H](CCCCN)NC(=O)[C@H](CCCNC(=N)N)NC(=O)[C@H](CC(C)C)NC(=O)[C@H](C)NC(=O)[C@H](Cc1ccc(O)cc1)NC(=O)[C@H](CC(N)=O)NC(=O)[C@H](CCCNC(=N)N)NC(=O)[C@H](CCC(=O)O)NC(=O)[C@H](CCC(=O)O)NC(=O)[C@H](CC(C)C)NC(=O)[C@H](CCC(N)=O)NC(=O)[C@H](CCC(=O)O)NC(=O)[C@@H](NC(=O)[C@H](CCC(=O)O)NC(=O)[C@H](CCC(=O)O)NC(=O)[C@H](CCC(=O)O)NC(=O)[C@H](CC(C)C)NC(=O)[C@@H](NC(=O)[C@H](CC(=O)O)NC(=O)[C@H](CCC(=O)O)NC(=O)[C@H](CCC(=O)O)NC(=O)[C@@H](NC(=O)[C@@H](NC(=O)[C@H](CC(C)C)NC(=O)[C@H](CCC(=O)O)NC(=O)[C@H](CCC(=O)O)NC(=O)[C@H](C)NC(=O)[C@H](CCC(=O)O)NC(C)=O)C(C)C)C(C)C)C(C)C)[C@@H](C)CC)C(=O)N[C@H]1CCCCNC(=O)C[C@@H](C(=O)N[C@@H](CCC(N)=O)C(N)=O)NC(=O)[C@H](CCC(N)=O)NC(=O)[C@H](CC(C)C)NC(=O)[C@H](CC(=O)O)NC1=O
notes: cyclized form of the pair HW28/HW29; NΔ20 CΔ7; source: synthetic peptide (Fmoc SPPS, on-resin lactamization, RP-HPLC purified)
B6: HW30 (peptide)
peptide: Ac-EAEELVVEEKVLEDEIEQLEERNYALRKEIKDLQDQ-NH2
modifications: lactam 10-14, 31-35
SMILES: CC[C@H](C)[C@H](NC(=O)[C@H](CCC(=O)O)NC(=O)[C@H](CCCCN)NC(=O)[C@H](CCCNC(=N)N)NC(=O)[C@H](CC(C)C)NC(=O)[C@H](C)NC(=O)[C@H](Cc1ccc(O)cc1)NC(=O)[C@H](CC(N)=O)NC(=O)[C@H](CCCNC(=N)N)NC(=O)[C@H](CCC(=O)O)NC(=O)[C@H](CCC(=O)O)NC(=O)[C@H](CC(C)C)NC(=O)[C@H](CCC(N)=O)NC(=O)[C@H](CCC(=O)O)NC(=O)[C@@H](NC(=O)[C@H](CCC(=O)O)NC(=O)[C@@H]1CC(=O)NCCCC[C@H](NC(=O)[C@H](CCC(=O)O)NC(=O)[C@H](CCC(=O)O)NC(=O)[C@@H](NC(=O)[C@@H](NC(=O)[C@H](CC(C)C)NC(=O)[C@H](CCC(=O)O)NC(=O)[C@H](CCC(=O)O)NC(=O)[C@H](C)NC(=O)[C@H](CCC(=O)O)NC(C)=O)C(C)C)C(C)C)C(=O)N[C@@H](C(C)C)C(=O)N[C@@H](CC(C)C)C(=O)N[C@@H](CCC(=O)O)C(=O)N1)[C@@H](C)CC)C(=O)N[C@H]1CCCCNC(=O)C[C@@H](C(=O)N[C@@H](CCC(N)=O)C(N)=O)NC(=O)[C@H](CCC(N)=O)NC(=O)[C@H](CC(C)C)NC(=O)[C@H](CC(=O)O)NC1=O
notes: double lactamized peptide; NΔ20 CΔ7; also called double lactam peptide HW30; source: synthetic peptide (Fmoc SPPS, on-resin lactamization, RP-HPLC purified)

Assays:
[1] = target: T1, cJun (Homo sapiens, UniProt P05412); test: Isothermal titration calorimetry (ITC) with cJun; format: binding; settings: 25 °C, pH 7.4, one-site model, average of two experiments ± one SD
T1 construct: The same 60 amino acid cJun construct, encompassing the entire bZIP domain, was used for all experiments
Description: A selection of peptides from this work were investigated by isothermal titration calorimetry (ITC) to quantify the thermodynamic parameters of their interaction with target cJun (Figure 4 and S6; Table 2). The determined equilibrium binding constant (KD) values follow from the CD data above and can be rationalized in terms of the truncation or lactamization they represent. […] All interactions investigated were dominated by the enthalpic component, with a smaller unfavorable entropic contribution, other than for HW8/cJun, which is the weakest interaction. The unfavorable entropic component was largest for the HW30/cJun interaction and smallest for HW23/cJun. This indicates the introduction of lactams produces a more unfavorable entropic component, perhaps a surprising result as helix-inducing lactamization is typically considered to increase affinity through entropic pre-organization. However, the larger increase in the favorable enthalpic component produces an increase in binding affinity due to lactamization. This is likely to be caused by a combination of enhanced intermolecular contacts and ordering that are opposed by unfavorable desolvation effects.
Two-μL injections of antagonist peptide at 25–200 μM were injected into the cell containing cJun at 2.5–20 μM at 25°C. Microcal Control and Analysis software were used to record and analyze the heat change upon addition and fit the data to a one-site binding model to extract the enthalpy change of binding (ΔH) and the KD, from which the free energy change of binding (ΔG) and the entropy change of binding (ΔS) were calculated.[40] Control experiments involved the injection of the antagonist peptide sample into the cell containing ITC buffer alone to determine the heat of dilution, which was subtracted. Thermodynamic parameters are presented as an average of two independent experiments with errors given as one SD.

[2] = Peptide fraction helicity by CD at 222 nm, peptide-only samples; format: physicochemical; settings: CD signal at 222 nm of peptide-only samples; pH 7.4 phosphate/KF/TCEP buffer; duplicate experiments
Description: (§1) The precise nature of the interaction between the cJun DBD and the rationally designed acidic domain of HW1 is unknown. HW1 was, therefore, iteratively truncated from the N terminus (HW2–6) to investigate the effect on cJun binding and cJun/TRE DNA antagonism (Table 1). Peptide fraction helicity (fH) was determined by quantifying the circular dichroism (CD) signal at 222 nm of peptide-only samples (Figure S1). Thermal denaturation experiments were then used to determine the melting temperature (Tm) of peptide-cJun heterodimers, which serves as an approximate measure of target engagement. CD was also used to investigate the functional activity of peptides in antagonizing the cJun/TRE DNA interaction. […] This provides a clear and direct measurement of the proportion of DNA bound to cJun. As antagonist peptide concentration was increased, the peak shifted to overlay with that of free TRE-DNA (Figure S4). For each peptide, the data were fit to a Hill equation to determine half-maximal inhibitory concentration (IC50) values, specific to these assay conditions, providing a clear comparative measure of antagonism. The same 60 amino acid cJun construct, encompassing the entire bZIP domain, was used for all experiments regardless of antagonist peptide length.

[3] = target: T1, cJun; test: CD thermal denaturation of peptide-cJun heterodimers (Tm); format: binding; settings: CD ellipticity at 222 nm, 1-90 °C; peptide (5 μM)/cJun (5 μM); 20 mM potassium phosphate, 150 mM potassium fluoride, 2 mM TCEP pH 7.4; two-state fit; duplicate experiments, ± one SD
Description: as §1
Figure 2 Iterative N-terminal truncation of HingeW reduces cJun binding and antagonism (A) Thermal denaturation profiles for iteratively truncated peptide (5 μM)/cJun (5 μM) heterodimer samples. (B) CD antagonism data produced by monitoring the shift in a DNA specific peak to provide a direct readout of cJun-DNA binding. Peptides are added at the indicated concentrations to a pre-incubated mixture of cJun (20 μM) and TRE DNA (5 μM). Data points were averaged from triplicate experiments, and error bars indicate one SD. The data were fitted to a Hill equation to determine IC50 values. Some higher peptide concentration data points for HW6 and HW9 are not shown in this plot for clarity.

[4] = target: T2, cJun (60 amino acid construct encompassing the entire bZIP domain) (UniProt P05412 252-315); test: cell-based or functional assay
[5] = target: T2, cJun (60 amino acid construct …); test: CD thermal denaturation; peptide (5 μM) with cJun (5 μM); ellipticity at 222 nm, 1°C to 90°C; 20 mM potassium phosphate, 150 mM potassium fluoride, 2 mM TCEP, pH 7.4; two-state fit gives the Tm of the peptide-cJun heterodimer; duplicate experiments; settings: both partners purified
[6] = target: T2, cJun (60 amino acid construct …); test: ITC; antagonist peptide at 25–200 μM injected into cJun at 2.5–20 μM in the cell, 25°C; 20 mM potassium phosphate, 150 mM potassium fluoride, 2 mM TCEP, pH 7.4; one-site binding model; two independent experiments; settings: both partners purified

T2 sequence (P05412 252-315): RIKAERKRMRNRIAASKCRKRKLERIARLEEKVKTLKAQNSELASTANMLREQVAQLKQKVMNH
T1 sequence (P05412 252-315 limits assumed): as the sequence (P05412 252-315) above

Molecule	ΔH [1] [kJ/mol]	Stoichiometry, n ([1]; peptide 25-200 μM injected into cJun 2.5-20 μM)	fH, peptide fraction helicity [2] [%]	Tm of peptide-cJun heterodimer [3] [°C]	IC50 CD: peptide added to pre-incubated cJun (20 μM) and TRE DNA (5 μM); blocks cJun/TRE DNA binding [4] [µM]	Tm of the peptide-cJun heterodimer [5] [°C]	Kd [6] [µM]	dH [6] [kJ/mol]	stoichiometry N [6]
Ac-EAEELVVEEDVLEEEIEQLEERNYALRKEIEDLQKQLEKL-NH2 [HW4]	-189.95 ± 8.09	0.91 ± 0.04	45.5	64.1 ± 1.5					
B1					13.4	71.2	0.00021	-130	0.93
B2					45.4	64.1	0.0911	-190	0.91
B3					82.1	57.1	1.1	-25.1	0.95
B4					74.9	64	0.0696	-59	1.2
B5					52.7	65	0.0866	-98.7	0.97
B6					44.9	63.2	0.00969	-128	1.05
